In publication PMC9723635 one finds binding signal (% (reference)), stoichiometry N and Kd data, which are given here for five substances.

In data set [1] the test system is RBPMS-A WT. Description: UV crosslinking. As to conditions: 4 uM protein, EMSA: 50 mM HEPES pH 7.2-7.9, 15 mM MgCl2, 25% glycerol, 5 mM DTT, 45 mM KCl, 5 ug tRNA, 20 fmol RNA, 25 min at 30 C, then 5 ug heparin 5 min at 30 C.
Data set [2] addresses recombinant RBPMS-A T/A (double mutant T113A and T118A) (UniProt Q93062). Description: AUC; sedimentation velocity, interference data, 40 000 rpm, 20°C, overnight; protein at 0.5 mg/ml in 20 mM HEPES, 500 mM KCl, 1 mM TCEP, pH 7.9; c(s) distributions by SEDFIT; self-association into dimers and higher-order oligomers.
For data set [3], the target named is recombinant wild-type RBPMS-A (RNA Binding Protein with Multiple Splicing, canonical isoform A) (UniProt Q93062). The description is as above.
Data set [4] addresses truncated RBPMS-A T/E (amino acids 1-122, T113E and T118E), the sample used for NMR (UniProt Q93062). Nature of the data set: SEC-MALS; 50 μl at ~2 mg/ml on Superdex 75 10/300 GL increase, 10 mM HEPES pH 6.8, 50 mM KCl, 0.5 ml/min; self-association (dimer). Background: SEC sorts molecules by how far they enter the pores of the column.
Data set [5] deals with RBPMS-A WT. Nature of the data set: EMSA. As to conditions: apparent Kd, Hill fit; tRNA and heparin present; EMSA: 50 mM HEPES pH 7.2-7.9, 15 mM MgCl2, 25% glycerol, 5 mM DTT, 45 mM KCl, 5 ug tRNA, 20 fmol RNA, 25 min at 30 C, then 5 ug heparin 5 min at 30 C; 4% …. A general note: Mobility shift assays separate free from complexed probe on a gel.

Turning to Tpm1 UV-crosslinking RNA, the binding signal (% (reference)) in the data set on RBPMS-A WT [1] (no nuclear extract) and in the data set with RBPMS-A WT [1] (with 20% HeLa nuclear extract) was 100 throughout.

What is called stoichiometry N is the number of molecules, sites or subunits per partner or assembly. As to “recombinant RBPMS-A T/A (double mutant T113A and T118A) (from UniProt Q93062 2-196) (natural protein)”, in data set [2], the stoichiometry N came out at 2. On to “recombinant wild-type RBPMS-A (RNA Binding Protein with Multiple Splicing, canonical isoform A) (from UniProt Q93062 2-196) (natural protein)”, for which the stoichiometry N in data set [3] turned out to be 2. Consider “truncated RBPMS-A T/E (amino acids 1-122, T113E and T118E), the sample used for NMR (from UniProt Q93062 1-122) (domain or fragment)”, for which, in data set [4], the stoichiometry N was 2. “Tpm1 exon 3 upstream intron EMSA RNA (three tandem CAC motifs)”: the Kd in the data set with RBPMS-A WT [5] is 213 nM.
